Where a chain is given by its changes, count along the chain named. Names and notes keep the numbering of the source.
Experiments:
[1] = molecular target: T1, MBP-MUC16^ecto (maltose binding protein fused to the 26-residue MUC16 ectodomain segment) (Homo sapiens); test: pull-down; MBP pull-down on amylose resin; MBP-tagged MUC16-target as bait (~20 µg), scFv as prey at 2-fold molar excess; 50 mM Tris-HCl pH 8.0, 400 mM NaCl, 1 mM EDTA, 1 mM DTT, 4 °C, 3 h; three washes; SDS-PAGE; conditions: both partners purified
T1 construct: linker between MBP and the MUC16 segment; Cloned into pMal-C5X (NEB); Only one of the two PDB entries holds this chain; also called MBP-fused MUC16-target; MBP-tagged MUC16-target (wt); source: E. coli BL21-RIL (DE3), purified (amylose resin, Superdex-75); not shown: MBP, N-terminal, kept
T1 chain: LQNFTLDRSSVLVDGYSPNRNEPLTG

[2] = molecular target: T2, native glycosylated MUC16 expressed on cancer cells (OVCAR3, SKBR3) (human (endogenous in OVCAR3 and SKBR3), UniProt Q8WXI7, glycosylated (native)); test: immunostaining of cells or tissue; Alexa-conjugated scFv on fixed cells; Alexa-350-WGA as membrane marker; OVCAR3 and SKBR3 (MUC16-expressing), HEK293T/17 and SKOV3 as controls; conditions: one partner purified
T2 construct: MUC16 (mucin 16), as expressed on the surface of OVCAR3 and SKBR3 cells; also called Mucin 16; cellular MUC16; source: endogenous, on OVCAR3 and SKBR3 cells

[3] = molecular target: T3, commercially synthesized MUC16^ecto peptide (26 residues) (Homo sapiens); test: ITC; ITC200, 23 °C; scFv (12.8 µM) in the cell, MUC16 peptide (144 µM) or MBP-MUC16^ecto (130 µM) in the syringe; 50 mM Tris pH 8.0, 400 mM NaCl (the results say pH 7.4); average of three experiments; conditions: both partners purified
T3 construct: also called synthesized MUC16-target; the synthesized peptide; source: synthetic peptide (commercially synthesized)
T3 chain: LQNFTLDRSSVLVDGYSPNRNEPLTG

[4] = molecular target: T1, MBP-MUC16^ecto (maltose binding protein …); test: as above; conditions: both partners purified

B1: 4H11-scFv with VH double mutations S53A/D106A (scFv, V domains shown)
VH: EVKLQESGGGFVKPGGSLRVSCAASGFTFSSYAMSWVRLAPEMRLEWVATISAAGGYIFYSDSVQGRFTISRDNAKNSLHLQMGSLRSGDTAMYYCARQGFGNYGAYYAMDYWGQGTTVTVSS
VL: DIELTQSPSSLAVSAGERVTMNCKSSQSLLNSRTRKNQLAWYQQKPGQSPELLIYWASTRQSGVPDRFSGSGSGTDFTLTISSVQAEDVAVYYCQQSYNLLTFGPGTKLEIK
notes: as the VH of m1 (hVH2, E1-S123); linker (GGGGS)5; as the VL of m1 (hVL1, D1-R113 = scFv residues 149-261); Made by QuikChange mutagenesis of m1; also called scFv mutant S53A/D106A; source: ExpiCHO-S, transfected (same lentivector as the wild type)
B1: binds [1].

B2: Alexa-fluorescence conjugated 4H11-scFv (scFv, V domains shown)
VH: B1 VH with A53S, A106D
VL: B1 VL
notes: as the VH of m1 (hVH2, E1-S123); linker (GGGGS)5; as the VL of m1 (hVL1, D1-R113 = scFv residues 149-261); also called Alexa-4H11-scFv; Alexa-labeled scFv; source: purified 4H11-scFv labeled with Alexa Fluor 488 carboxylic acid, further purified by Superdex-75
B2: binds [2].

B3: 4H11-scFv (H2L1), VH-linker (GGGGS)5-VL (scFv, V domains shown)
VH: B1 VH with A53S, A106D
VL: B1 VL
notes: humanized 4H11 VH (hVH2 of H2L1), E1-S123; linker (GGGGS)5, residues 124-148 of the scFv; humanized 4H11 VL (hVL1 of H2L1), D1-R113, which are residues 149-261 of the scFv; N-terminal signal peptide in the construct for secretion; also called h4H11-scFv; H2L1 4H11-scFv
B3 was tested, and the Kd [3] was ~1.4 nM and the Kd [4] was ~2 nM.

B4: 4H11-scFv with VL double mutations Y246A/N247A (scFv, V domains shown)
VH: B1 VH with A53S, A106D
VL: B1 VL with Y98A, N99A
notes: as the VH of m1 (hVH2, E1-S123); linker (GGGGS)5; as the VL of m1 (hVL1, D1-R113) with the stated changes. numbers count on: the whole scFv (VL begins at D149); Made by QuikChange mutagenesis of m1; also called scFv mutant Y246A/N247A; source: ExpiCHO-S, transfected (same lentivector as the wild type)
B4: binds [1].

— PMC10875768, “Structural basis for antibody recognition of the proximal MUC16 ectodomain” (Journal of Ovarian Research, 2024)
